The values that follow come from patent US7122382.

The target in one assay is p53 (UniProt P02340). Nature of the assay: biotinylated row protein on streptavidin beads, 35S column protein counted.
The target of assay [1] is luciferase [luciferase: P08659]. The description is as above.
In the next assay the target is Jun (UniProt P05627). The assay is described as above.
Another assay has as its target SV40 large T (SV40) (UniProt P03070). Described as above.
The target in a further assay is Fos (UniProt P01101). The description is as above.
A further assay deals with streptoavidin beads (UniProt P22629). Nature of the assay: five 35S-labelled proteins alone on streptavidin beads, no biotinylated protein.
Sequence of streptoavidin beads (P22629 37-163): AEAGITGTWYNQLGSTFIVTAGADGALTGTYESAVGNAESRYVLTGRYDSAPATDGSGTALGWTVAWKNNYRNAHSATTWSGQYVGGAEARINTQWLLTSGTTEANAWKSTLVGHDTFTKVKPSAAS

Sequence of Jun (P05627 whole entry): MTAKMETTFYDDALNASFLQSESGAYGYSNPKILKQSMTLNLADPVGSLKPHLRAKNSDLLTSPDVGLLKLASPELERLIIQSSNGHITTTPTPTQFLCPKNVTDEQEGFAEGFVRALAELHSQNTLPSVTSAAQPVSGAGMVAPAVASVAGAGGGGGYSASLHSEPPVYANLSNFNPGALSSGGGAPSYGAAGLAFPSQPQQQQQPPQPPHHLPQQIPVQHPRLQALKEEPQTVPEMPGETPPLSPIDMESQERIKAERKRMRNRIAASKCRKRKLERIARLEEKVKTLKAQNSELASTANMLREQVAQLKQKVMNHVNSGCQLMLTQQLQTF
Sequence of luciferase [luciferase: P08659] (P08659 whole entry): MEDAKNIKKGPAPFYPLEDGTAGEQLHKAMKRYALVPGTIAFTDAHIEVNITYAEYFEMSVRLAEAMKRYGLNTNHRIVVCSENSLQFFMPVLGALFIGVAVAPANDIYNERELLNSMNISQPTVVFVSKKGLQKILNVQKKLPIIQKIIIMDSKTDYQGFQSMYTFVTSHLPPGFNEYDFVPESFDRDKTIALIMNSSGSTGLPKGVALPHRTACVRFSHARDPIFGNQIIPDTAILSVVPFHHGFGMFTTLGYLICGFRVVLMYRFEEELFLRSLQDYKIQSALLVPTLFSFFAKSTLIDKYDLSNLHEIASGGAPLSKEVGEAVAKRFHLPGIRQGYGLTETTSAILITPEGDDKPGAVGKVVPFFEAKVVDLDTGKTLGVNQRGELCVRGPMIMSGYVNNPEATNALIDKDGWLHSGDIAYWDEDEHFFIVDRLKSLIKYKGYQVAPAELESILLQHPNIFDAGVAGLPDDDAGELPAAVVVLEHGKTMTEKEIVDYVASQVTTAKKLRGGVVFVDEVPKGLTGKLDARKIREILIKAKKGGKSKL
Sequence of Fos (P01101 whole entry): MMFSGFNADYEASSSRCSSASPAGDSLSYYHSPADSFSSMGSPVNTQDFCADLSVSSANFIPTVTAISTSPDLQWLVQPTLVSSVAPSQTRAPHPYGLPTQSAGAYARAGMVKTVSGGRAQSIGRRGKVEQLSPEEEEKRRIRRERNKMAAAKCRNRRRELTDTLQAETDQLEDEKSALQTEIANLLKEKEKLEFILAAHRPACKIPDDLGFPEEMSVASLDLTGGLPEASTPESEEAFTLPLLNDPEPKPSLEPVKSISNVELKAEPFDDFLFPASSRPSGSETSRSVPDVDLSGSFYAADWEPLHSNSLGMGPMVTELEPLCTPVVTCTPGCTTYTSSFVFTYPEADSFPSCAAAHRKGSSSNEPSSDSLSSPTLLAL
Sequence of p53 (P02340 whole entry): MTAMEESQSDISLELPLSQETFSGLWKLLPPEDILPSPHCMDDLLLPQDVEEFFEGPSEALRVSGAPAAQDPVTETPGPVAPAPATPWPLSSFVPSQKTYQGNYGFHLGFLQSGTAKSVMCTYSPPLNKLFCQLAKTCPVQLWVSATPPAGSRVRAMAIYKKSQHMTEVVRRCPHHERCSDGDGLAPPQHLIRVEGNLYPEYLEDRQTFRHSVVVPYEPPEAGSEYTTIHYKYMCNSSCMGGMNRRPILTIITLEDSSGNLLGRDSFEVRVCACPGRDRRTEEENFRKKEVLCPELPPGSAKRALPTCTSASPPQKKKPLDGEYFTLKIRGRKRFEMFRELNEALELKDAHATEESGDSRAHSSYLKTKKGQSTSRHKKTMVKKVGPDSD

For the substance “SV40 large T (from UniProt P03070 1-708) (other; other documents disagree on this pair)”, the RI (c.p.m.) in the assay with p53 is 1400 c.p.m; in assay [1], 208 c.p.m.
Turning to “SV40 large T (from UniProt P03070 1-708)”, the RI (c.p.m.) with Jun was 197 c.p.m; with SV40 large T (SV40), 551 c.p.m; in the assay with Fos it was 197 c.p.m.
On to p53 (from UniProt P02340 1-390), for which the RI (c.p.m.) with p53 was found to be 200 c.p.m.
“mixture of the five proteins of Reference Examples 1 and 2 (Fos, Jun, luciferase, SV40 large T, p53)”: the RI (cpm), background without biotinylated proteins with streptoavidin beads was determined as 447 cpm.
